Results reported in paper PMC12049944, “Lecithin:cholesterol acyltransferase binds a discontinuous binding site on adjacent apolipoprotein A-I belts in HDL” (Journal of Lipid Research, 2025).

Molecular target: the molecule itself
Assay: SEC; LCAT alone on triple Superdex 200 Increase, run beside rHDL alone and the cross-linked mixture

B1: Lecithin:cholesterol acyltransferase (recombinant, expressed in CHO cells) (enzyme, human, UniProt P04180 25-440, looked up)
chain: FWLLNVLFPPHTTPKAELSNHTRPVILVPGCLGNQLEAKLDKPDVVNWMCYRKTEDFFTIWLDLNMFLPLGVDCWIDNTRVVYNRSSGLVSNAPGVQIRVPGFGKTYSVEYLDSSKLAGYLHTLVQNLVNNGYVRDETVRAAPYDWRLEPGQQEEYYRKLAGLVEEMHAAYGKPVFLIGHSLGCLHLLYFLLRQPQAWKDRFIDGFISLGAPWGGSIKPMLVLASGDNQGIPIMSSIKLKEEQRITTTSPWMFPSRMAWPEDHVFISTPSFNYTGRDFQRFFADLHFEEGWYMWLQSRDLLAGLPAPGVEVYCLYGVGLPTPRTYIYDHGFPYTDPVGVLYEDGDDTVATRSTELCGLWQGRQPQPVHLLPLHGIQHLNMVFSNLTLEHINAILLGAYRQGPPASPTASPEPPPPE
notes: Lecithin:cholesterol acyltransferase, human; cross-links to 'LCAT residue 1' (the N-terminus) are reported; Used for all non-cryoEM experiments (cross-linking, SEC, negative-stain EM, activity assays); also called LCAT; human LCAT; source: CHO cells, recombinant, gifted by Alan Remaley
binding result: binds
